These are literature values, as cited in publication PMC2975797.

This data set deals with von Willebrand factor (Homo sapiens) (UniProt P04275).

The Kd is the constant that tells how readily two partners part at equilibrium. Factor VIII (from UniProt P00451): the Kd is < 0.5 nM.
